For data set [1], the target named is T1, MdWRKY40 (Malus domestica, UniProt A0A7S5ATZ6 1-302). The experiment in a line: EMSA; cold probe weakens binding; EMSA: binding buffer not specified, 24 °C, 30 min; salt and pH not stated. To be noted: protein: recombinant; tags: His tag, pET-32a(+) fusion; blunt. A general note: In EMSA bound probe runs differently from free probe, usually more slowly.
The target in data set [2] is T1, MdWRKY40. Put plainly: EMSA; text says not bound; the only printed mutant is of W-box 3, so numbering of 2 and 3 is uncertain; EMSA: binding buffer not specified, 24 °C, 30 min; salt and pH not stated. The following applies: protein: recombinant; tags: His tag, pET-32a(+) fusion; blunt.

This is an account of results in PMC9344649, “Involvement of MdWRKY40 in the defense of mycorrhizal apple against fusarium solani”.

T1 sequence (A0A7S5ATZ6 entry or part of it): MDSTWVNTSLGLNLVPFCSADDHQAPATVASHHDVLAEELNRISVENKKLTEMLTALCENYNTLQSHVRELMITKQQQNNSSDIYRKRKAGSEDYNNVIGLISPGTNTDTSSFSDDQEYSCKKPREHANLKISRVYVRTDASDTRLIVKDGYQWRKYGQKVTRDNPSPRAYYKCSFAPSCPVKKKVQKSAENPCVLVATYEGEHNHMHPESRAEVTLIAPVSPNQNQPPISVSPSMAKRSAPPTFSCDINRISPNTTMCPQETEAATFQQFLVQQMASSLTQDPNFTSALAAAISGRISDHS

B1: proMdGLU W-box 2 probe (dsDNA)
DNA 1: ATCACAAATAAAATTGATATTTGACCAACTACATGCCACGATCACA
DNA 2: TGTGATCGTGGCATGTAGTTGGTCAAATATCAATTTTATTTGTGAT
For the molecule B1, in the data set with MdWRKY40 [1], the binding result is “binds”.

B2: proMdGLU W-box 3 probe (dsDNA)
DNA 1: CTTTCCCCCCTATAAATACTTTGACCACCAACTCCCCAATCCTCCA
DNA 2: TGGAGGATTGGGGAGTTGGTGGTCAAAGTATTTATAGGGGGGAAAG
For B2, the binding result in the data set with MdWRKY40 [2] is “no binding”.
